Measured values reported in US8420776B2, “Ube2G2 binding domain in the ubiquitin ligase gp78 and methods of use thereof” (The United States of America, as Represented by the …, priority 2004, dated 2013).

Experiments:
UbcH5B = target: T1, UbcH5B (Homo sapiens, UniProt P62837); test: GST pull-down binding of in vitro translated UbcH5B; settings: GST fusion pull-down
T1 construct: made in house; host or cells: in vitro translation in wheat germ
Protocol: (§1) GST fusions were purified from E. Coli. Binding was carried out using equi-molar amount of fusion proteins measured by Commassie blue staining. Generally, 20 picomoles/sample were used. In vitro translated E2 was generated by coupled transcription and translation using 35S methionine in either wheat germ or rabbit reticulocyte lysate. Binding assays using in vitro translated E2 was carried out by incubating GST protein pre-bound to Glutathione-sepharose 4B with […] of ^35S-methionine labeled E2 in binding buffer (25 mM Tris-HCl, pH 7.4; 50 mM NaCl, 5 mM DTT; and 0.5% NP-40) overnight at 4° C. Beads were washed with binding buffer and resolved by SDS-PAGE under reducing conditions. Analysis was by Storm PhosphoImager (Applied Biosystems, Foster City, Calif.). Direct binding assays used wild type His6-MmUbc7 (His6-Ube2G2) and Glutathione-sepharose bound GST fusions. Beadbound GST protein was incubated with 100 ng purified His6-MmUbc7 in binding buffer and washed and eluted as above. After transfer to Hybond-P (Amersham Biosciences) binding was assessed with anti-His6 followed by Enhanced Chemiluminescence ECL; Pierce). Ubiquitin binding studies were performed with binding and washing as above using 1 μg K48 tetra-ubiquitin produced as described (Piotrowski et al., 1997). Detection was by anti-ubiquitin immunoblotting. […]

Ube2G2/MmUbc7 = target: T2, Ube2G2/MmUbc7 (Mus musculus, UniProt P60605); test: GST pull-down binding of in vitro translated 35S-Met Ube2G2/MmUbc7; parameters: species or system human; settings: GST fusion pull-down; 35S-Met labeled E2
T2 construct: made in house; host or cells: coupled in vitro transcription/translation in rabbit reticulocyte lysate or wheat germ
T2 sequence (P60605 1-165): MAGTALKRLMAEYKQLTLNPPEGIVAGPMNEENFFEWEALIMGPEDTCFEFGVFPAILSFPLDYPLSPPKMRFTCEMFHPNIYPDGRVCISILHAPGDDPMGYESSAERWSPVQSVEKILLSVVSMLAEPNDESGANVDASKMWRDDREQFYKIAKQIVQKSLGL
Protocol: GST fusions were purified from E. Coli. Binding was carried out using equi-molar amount of fusion proteins measured by Commassie blue staining. Generally, 20 picomoles/sample were used. In vitro translated E2 was generated by coupled transcription and translation using 35S methionine in either wheat germ or rabbit reticulocyte lysate. […] Beads were washed with binding buffer and resolved by SDS-PAGE under reducing conditions. Analysis was by Storm PhosphoImager (Applied Biosystems, Foster City, Calif.). Direct binding assays used wild type His6-MmUbc7 (His6-Ube2G2) and Glutathione-sepharose bound GST fusions. Beadbound GST protein was incubated with 100 ng purified His6-MmUbc7 in binding buffer and washed and eluted as above. After transfer to Hybond-P (Amersham Biosciences) binding was assessed with anti-His6 followed by Enhanced Chemiluminescence ECL; Pierce).
The E2 enzymes were in vitro translated using wheat germ.
GST fusion proteins encoding the regions indicated in FIGS. 3A-3C were evaluated for the ability to bind to Ube2G2/MmUbc7 that had been in vitro transcribed and translated in rabbit reticulocyte lysate. gp78C represents the entire C-terminal cytoplasmic domain of gp78 (amino acid residues 309-643 of SEQ ID NO:2).

Ube2G1 = target: T3, Ube2G1 (Rattus norvegicus, UniProt P62255); test: GST pull-down binding of in vitro translated Ube2G1; settings: GST fusion pull-down
T3 construct: made in house; host or cells: in vitro translation in wheat germ (similar results in reticulocyte lysate)
T3 sequence (P62255 1-170): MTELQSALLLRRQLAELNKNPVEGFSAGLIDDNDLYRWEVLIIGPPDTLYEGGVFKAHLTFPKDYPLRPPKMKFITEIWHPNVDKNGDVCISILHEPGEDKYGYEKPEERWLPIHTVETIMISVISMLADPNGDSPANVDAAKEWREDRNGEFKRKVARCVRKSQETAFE
Excerpt: Plasmids encoding the following have been described: rat Ubc7 (Ube2g1) (Lin and Wing, 1999); UbcH5B (Jensen et al., 1995); Myc-MmUbc7, C89S Myc-MmUbc7, HA-CD3-δ and 2B4 TCR-α (Tiwari and Weissman, 2001); GST-gp78 309 to 643, 508 or 428 and full length gp78 and the double RING finger mutation gp78Rf-m in pCINeo (Fang et al., 2001); and GST-UBA-Cbl-b (Davies et al., 2004). Plasmids encoding Ubc7p and His6-MmUbc7 were generated by PCR and subcloned into pCDNA-DEST47 or pExp17 respectively using Gateway (Invitrogen, Carlsbad, Calif.). GST-AO7 (92 to 259) was subcloned from full length A07 (Lorick et al., 1999). GST-gp78 beginning at 429, 503, 522, 542, 561, 574, 587, or 596 and ending at 643 GST-gp78 beginning at 435 and ending at 507 and GST-Cue1p 24-203 (Cue1pC) were generated by PCR and cloning into pGEX4T-1 (Amersham Biosciences, Piscataway, N.J.). N-terminal Flag-tagged constructs were created by PCR and cloning into pFlag-CMV6 (Sigma). N-terminal GFP-tagged constructs were generated by subcloning from pFLAG-CMV6 to pEGFP-C1 (BD Biosciences, Palo Alto, Calif.). […]
GST fusions were purified from E. Coli. Binding was carried out using equi-molar amount of fusion proteins measured by Commassie blue staining. […] After transfer to Hybond-P (Amersham Biosciences) binding was assessed with anti-His6 followed by Enhanced Chemiluminescence ECL; Pierce). […]

[1] = target: T4, lysine 48-linked (K48) tetra-ubiquitin (Homo sapiens, UniProt P0CG47); test: Tetra-ubiquitin binding to GST fusions; settings: anti-ubiquitin immunoblot
T4 construct: 1 μg K48 tetra-ubiquitin produced as described (Piotrowski et al., 1997); made in house
Protocol: (§2) GST fusions were purified from E. Coli. Binding was carried out using equi-molar amount of fusion proteins measured by Commassie blue staining. Generally, 20 picomoles/sample were used. In vitro translated E2 was generated by coupled transcription and translation using 35S methionine in either wheat germ or rabbit reticulocyte lysate. Binding assays using in vitro translated E2 was carried out by incubating GST protein pre-bound to Glutathione-sepharose 4B with […] of ^35S-methionine labeled E2 in binding buffer (25 mM Tris-HCl, pH 7.4; 50 mM NaCl, 5 mM DTT; and 0.5% NP-40) overnight at 4° C. Beads were washed with binding buffer and resolved by SDS-PAGE under reducing conditions. Analysis was by Storm PhosphoImager (Applied Biosystems, Foster City, Calif.). Direct binding assays used wild type His6-MmUbc7 (His6-Ube2G2) and Glutathione-sepharose bound GST fusions. Beadbound GST protein was incubated with 100 ng purified His6-MmUbc7 in binding buffer and washed and eluted as above. After transfer to Hybond-P (Amersham Biosciences) binding was assessed with anti-His6 followed by Enhanced Chemiluminescence ECL; Pierce). Ubiquitin binding studies were performed with binding and washing as above using 1 μg K48 tetra-ubiquitin produced as described (Piotrowski et al., 1997). Detection was by anti-ubiquitin immunoblotting.

Ubc7p = target: T5, Ubc7p (Saccharomyces cerevisiae, UniProt Q02159); test: GST pull-down binding of in vitro translated Ubc7p; parameters: species or system yeast; settings: GST fusion pull-down
T5 construct: made in house; host or cells: in vitro translation in wheat germ from pCDNA-DEST47
T5 sequence (Q02159 1-165): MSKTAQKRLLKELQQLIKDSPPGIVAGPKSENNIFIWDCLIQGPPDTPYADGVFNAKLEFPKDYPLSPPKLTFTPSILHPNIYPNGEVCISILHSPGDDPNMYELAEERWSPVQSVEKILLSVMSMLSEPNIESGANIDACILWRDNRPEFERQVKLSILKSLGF
Protocol: as §1

gp78 = test: Cycloheximide chase of gp78 in transfected cells; format: cell-based; settings: compared to wild type gp78
Protocol: (§3) Transfections of HT1080, NIH 3T3 and HEK 293T cells were carried out ˜24 hr after plating using Polyfect (Qiagen, Valencia, Calif.) and cells harvested after ˜48 hr. J558 cells were transfected by electroporation using Bio-rad GENE pulser II at settings of 250 v, 950uF. Vector without insert was used to equalize total plasmid. In most experiments 0.15 μg of pEGFP-C1 served as an internal control. For experiments not involving immunoprecipitation, 6×10^5 cells were plated in 6 well plates and cell lysis was with Mammalian Protein Extraction Reagent (Pierce). For immunoprecipitation, 2.4×10^6 cells were seeded in 100 mm dishes and cells were lysed in RIPA buffer (1×PBS, 1% Nonidet P40. 0.5% sodium deoxycholate, 0.1% SDS). Lysis buffers were supplemented with Protease Inhibitor Cocktail (Sigma) and 10 mM iodoacetamide. Supernatants were analyzed after a 10,000×g centrifugation using standard techniques for immunoprecipitation, SDS-PAGE, immunoblotting and ECL. Treatment of cells with MG132 (Sigma) was at 50 μM for eight hr. Cycloheximnide was used at 50 μg/ml. All cells were collected at the end of the six hr chase.
(§4) To evaluate protein turnover in more detail, cycloheximide chase experiments were performed (FIGS. 20C and 20D). […] In agreement with FIG. 20A, CD3-δ degradation was accelerated with wild type gp78 (FIGS. 20C and 20D middle panels; effects of full-length forms of gp78 on CD3-δ from FIGS. 20C and 20D are quantified in FIG. 20E).

His6-Ube2G2 = target: T6, His6-Ube2G2 (Mus musculus, UniProt P60605); test: Direct binding of bacterially expressed His6-Ube2G2 to GST fusions; settings: purified E2, anti-His6 immunoblot
T6 construct: made in house; host or cells: bacteria (pExp17, Gateway)
T6 sequence (P60605 1-165): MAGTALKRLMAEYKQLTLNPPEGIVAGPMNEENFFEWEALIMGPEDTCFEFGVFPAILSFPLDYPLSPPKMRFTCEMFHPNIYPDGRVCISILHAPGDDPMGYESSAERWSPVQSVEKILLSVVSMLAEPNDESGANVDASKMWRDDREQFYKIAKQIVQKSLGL
Protocol: as §2

endogenous Ube2G2 = target: T7, endogenous Ube2G2 (Homo sapiens, UniProt P60604); test: Co-immunoprecipitation of endogenous Ube2G2 with GFP fusions in HEK 293T cells; format: cell-based; settings: anti-GFP IP
T7 construct: endogenous in cells; host or cells: HEK 293T
T7 sequence (P60604 1-165): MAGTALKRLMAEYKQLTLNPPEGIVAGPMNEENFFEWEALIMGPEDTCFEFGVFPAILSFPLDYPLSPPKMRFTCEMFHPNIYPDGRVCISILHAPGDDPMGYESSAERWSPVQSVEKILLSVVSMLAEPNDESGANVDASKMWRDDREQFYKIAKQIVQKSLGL
Protocol: Transfections of HT1080, NIH 3T3 and HEK 293T cells were carried out ˜24 hr after plating using Polyfect (Qiagen, Valencia, Calif.) and cells harvested after ˜48 hr. J558 cells were transfected by electroporation using Bio-rad GENE pulser II at settings of 250 v, 950uF. Vector without insert was used to equalize total plasmid. In most experiments 0.15 μg of pEGFP-C1 served as an internal control. For experiments not involving immunoprecipitation, 6×10^5 cells were plated in 6 well plates and cell lysis was with Mammalian Protein Extraction Reagent (Pierce). […] Supernatants were analyzed after a 10,000×g centrifugation using standard techniques for immunoprecipitation, SDS-PAGE, immunoblotting and ECL. […]
FIG. 6 depicts the specific binding of gp78 residues 574-611 (of SEQ ID NO:2) to endogenous Ube2G2 in HEK 293T cells. Cells were transfected with plasmids encoding GFP fusions of the indicated regions of gp78, and co-immunoprecipitation was evaluated. […]
To determine the specificity of E2 binding in cells, GFP fusions encompassing the E2 binding region were expressed in cells, and co-immunoprecipitation of endogenous E2 was tested using antibodies raised specifically against Ube2g1, Ube2G2 and UbcH5B (FIG. 19B). […] In contrast, and consistent with the in vitro binding data in FIG. 18, no association with endogenous UbcH5B or Ube2g1 was detected (FIG. 19B third and fourth panels, left). […]

ERAD substrate CD3-δ = test: Cycloheximide chase of CD3-δ in co-transfected cells; format: cell-based; settings: co-transfection with HA-CD3-δ
Protocol: as §3, §4

T1 sequence (P62837 whole entry, the tested form may be a part): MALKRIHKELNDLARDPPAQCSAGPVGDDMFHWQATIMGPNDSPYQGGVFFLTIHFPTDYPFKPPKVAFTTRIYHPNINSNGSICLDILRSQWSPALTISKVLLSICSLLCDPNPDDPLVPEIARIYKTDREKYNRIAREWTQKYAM

Molecule	binding to in vitro translated UbcH5B (UbcH5B)	binding to in vitro translated Ube2G2/MmUbc7 (Ube2G2/MmUbc7)	binding to in vitro translated Ube2G1 (Ube2G1)	binding of K48 tetra-ubiquitin [1]	binding to in vitro translated yeast Ubc7p (Ubc7p)	gp78 stability (gp78)	direct binding of His6-Ube2G2 (His6-Ube2G2)	co-immunoprecipitation of endogenous Ube2G2 (endogenous Ube2G2)	effect on CD3-δ degradation (ERAD substrate CD3-δ)
Cue1pC: GST fusion of the cytoplasmic domain of yeast Cue1p (protein, left off: a dimerising Fc or GST, GST fusion of the cytoplasmic domain of yeast Cue1p) QSNQHPSAQRLSATGVNAHGRPQGSTQNALRRTGRVNGGHPVTTQMVETVQNLAPNLHPEQIRYSLENTGSVEETVERYLRGDEFSFPPGFEPSRAPMGANAAVDNNAAGGGEFNDPRKKNMICAENLLDKFHVDLNEDMSNLSFKDLDIEERKRLLVWQARKNLETKLQSDKDLQSLLT	bound to neither	bound	no binding	no binding	bound				
E2-m2: GST-gp78 fusion with residues 579-584 (QRMLVQ) mutated to AAAGGG; in b274 the same mutation in a GFP fusion (protein) MPLLFLERFPWPSLRTYTGLSGLALLGTIISAYRALSQPEAGPGEPDQLTASLQPEPPAPARPSAGGPRARDVAQYLLSDSLFVWVLVNTACCVLMLVAKLIQCIVFGPLRVSERQHLKDKFWNFIFYKFIFIFGVLNVQTVEEVVMWCLWFAGLVFLHLMVQLCKDRFEYLSFSPTTPMSSHGRVLSLLVAMLLSCCGLAAVCSITGYTHGMHTLAFMAAESLLVTVRTAHVILRYVIHLWDLNHEGTWEGKGTYVYYTDFVMELTLLSLDLMHHIHMLLFGNIWLSMASLVIFMQLRYLFHEVQRRIRRHKNYLRVVGNMEARFAVATPEELAVNNDDCAICWDSMQAARKLPCGHLFHNSCLRSWLEQDTSCPTCRMSLNIADNNRVREEHQGENLDENLVPVAAAEGRPRLNQHNHFFHFDGSRIASWLPSFSVEVMHTTNILGITQASNSQLNAMAHQIQEMFPQVPYHLVLQDLQLTRSVEITTDNILEGRIQVPFPTQRSDSIRPALNSPVERPSSDQEEGETSAQTERVPLDLSPRLEETLDFGEVEVEPSEVEDFEARGSRFSKSADERAAAGGGRKDELLQQARKRFLNKSSEDDAASESFLPLEGASSDPVTLRRRMLAAAAERRLQKQQTS		loss of binding				stabilized gp78	disrupted binding	abrogated binding	minimal stabilization of CD3-δ
